According to US20220256794A1, “TERPENE SYNTHASES AND TRANSPORTERS” (The State of Israel, Ministry of Agriculture & Rural …, priority 2019, published 2022):

Columns and labels:
[1] = Terpene synthase activity assay with GPP; format: biochemical; details: TPS expressed in E. coli; 10 μM GPP, overnight at 30° C., SPME GC-MS
Protocol: Putative terpene synthase genes were synthesized by the TWIST Co., and cloned into Novagen pET-28a(+) with a 6×His tag at its' N-terminus. The recombinant plasmid was then sequenced for authentication and transformed into BL21(DE3) pLysS and pLysE strains of E. coli (Agilent Technologies) for heterologous expression. An overnight culture was used to inoculate a 20-200 mL culture, induced with 0.1 mM IPTG at an OD 600 nm >0,8 for initiation of recombinant protein translation then incubated at 18° C. and 250 RPM overnight. The cells were collected by centrifugation and the recombinant enzymes were extracted either as a crude extract or purified on a Ni-NTA agarose resin as previously described [Gonda I. et al., The Plant Journal (2013) 61, 458-472].
To determine the terpene synthase catalytic activity, reaction mixtures containing 100 μl of protein extract or purified protein were incubated overnight at 30° C. with either 10 μM geranyl diphosphate (GPP) or farnesyl diphosphate (FPP), in a final volume of 200 μl using a buffer containing 50 mM bis-tris, pH 6.9, 1 mM DTT, 10% (v/v) glycerol, 0.1 mM of MnCl2 and 10 mM of MgCl2. The volatiles produced were extracted by solid-phase microextraction (SPME) according to the methodology previously described [Iijima Y. et al., Plant Physiol (2004) 136: 3724-3736]. As controls, reactions were carried out without the cofactors MnCl2 and MgCl2, or protein extracts were heat inactivated by incubation at 100° C. for 5 minutes, or a short peptide product of an empty pET100 vector was utilized.
For solid-phase microextraction (SPME) analysis, a 57298-U SPME fiber assembly Divinylbenzene/Carboxen/Polydimethylsiloxane (DVB/CAR/PDMS, Supelco) needle size 23 ga, StableFlex, was used with an autosampler and analyzed by GC-MS as previously described [Davidovich-Rikanati R. et al., Nature Biotech (2007) 25:899-901; Davidovich-Rikanati R. et al., Plant J (2008) 56:228-238]. The SPME fiber were adsorbed for 30 min. by automatic HS-SPME at 50° C. followed by injection of the fiber into a GC-MS injection port for 5 min. (splitless), for desorption of the volatiles. Chiral separation was conducted on a Restek Rt™-bDEXsm column (30 m length 0.25 mm i.d., 0.25 μm film thickness, 2,3-di-O-methyl-6-O-tert-butyl dimethylsilyl beta cyclodextrin added into 14% cyanopropylphenyl/86% dimethyl polysiloxane). Helium (0.8 ml min-1) was used as a carrier gas with splitless injection. The injector temperature was 250° C., and the detector temperature was 230° C. The following conditions were used: initial temperature 40° C. for 5 min., followed by a ramp of 2° C./min. to 110° C., and 10° C./min up to 230° C. (5 min.). A quadrupole mass detector with electron ionization at 70 eV was used to acquire the MS data in the range of 41 to 350 m/z. The identification of the volatiles was assigned by comparison spectral data with the W10N11 and HPCH2205 GC-MS libraries and with authentic standard when available.

yeast cells [2] = assay: Yeast growth (turbidity A600) in the presence of CBD; format: cell-based, Saccharomyces cerevisiae (strain Y1HGold); details: 0.5 mM CBD, 7-12 hours, FIG. 2
Protocol: (§1) The genes were expressed in yeast and tobacco. For yeast, the ABC and PTR Transporter genes were synthesized by the TWIST Co, cloned and expressed (individually) in the yeast expression vector pESC-URA (Agilent Technologies) for expression under the yeast native gal-10 promoter. Competent Saccharomyces cerevisiae (strain Y1HGold, CloneTech) cells were prepared, transformed by each of the resulting vector and selected on yeast synthetic media lacking Uracil as previously described [GietzR. D., Methods Mol. Biol. (2014) 1205:1-12].
An alternative method is to measure the yeast growth as a function of turbidity. Transformed yeast cells were grown on URA-glucose broth at 30° C. at 200 RPM, and after 24 hours 100 μl was used to inoculate 5 ml of URA-galactose broth in the same conditions till O.D.600 of 1.5. The yeast was further diluted to OD600=0.05 with 10 ml URA-galactose, and divided into two 5 ml aliquots into separate 50 ml falcon tubes. The first falcon (control) was added 78 μl acetonitrile (the solvent that the CBD was dissolved in), and the second one was added 78 μl CBD solution in acetonitrile (final CBD concentration=0.5 mM). […]

yeast cells [3] = assay: Uptake of CBD into yeast cells; format: cell-based, Saccharomyces cerevisiae (strain Y1HGold); details: 0.5 mM CBD, three hour incubation, FIG. 3A and FIG. 4
Protocol: as §1
An additional strategy for determining transporter function is to measure the amount of exogenous CBD taken up and incorporated into the cells.
Transformed yeast cells were grown on URA-glucose broth at 30° C. at 200 RPM, and after 24 hours 100 μl was used to inoculate 5 ml of URA-galactose broth in the same conditions till OD600 of […]. The yeast was incubated with 0.5 mM CBD for 2-8 hours in 30° C. at 100 RPM, then centrifuged at 15000 g for 1 minute, and washed twice with 1 ml distilled water. The pellet was weighed and underwent HPLC analysis to determine the pellet's CBD content. The pellet was extracted in 1 ml methanol, and following centrifugation and filter was analyzed by HPLC using a diode-array detector and CBD was quantified against a commercial standard.

B1: AG3403-2: Cannabis terpene synthase gene product, amino acid SEQ ID NO: 40 (protein)
chain: MHCITLKHQISPLLPNICSTTNFGVFFRPKLYTNYNIINNATKSRLSSACYPIQCAVVNSSNAIIDRRSANFEPSIWSFDYIQSLTSQYKGEPYTSRVKKLERDVKKILVEMENSLAQLELIDTLQRLGISYRFENEINSILNKKYVNINNPNYNLYAIALQFRLLRQHGYAVPQEIFNQLKDEIENIKKNINGNDIMGILALYEASFYEKKGESILKEARIFTTKCLKNYTIMISEQKKLLIDNDYDYDIEVVNHALELPLHRRTTRTEAKWFIDAYAKKQDMNPMLLELAKLNFNTVQSTHHEDLKHIFRWWRHTKLGEKLNFARDRLMECFLWNIGIRFESKFSYFRTKTAKLFELVTFIDDIYDVYGTLDELELFTKAVERWDVKMINELPEYMKMPYLVLHNTINDMVFEVLRDQEISINIQYLKKTWVDMCKSFLQEAKWYYSGYTPTLEEYIENGWISVGAPVILVHAYFFHANNNRTITNTKEIFECLEHGYYPAIIRHSAIILRFTNDLTTSSEELKRGDAPTSIQCYMQEKNVSEEEAREHIKFLINEAWKEMNNDVGLYPISLTEDATNFAKMGFFIYQHGDGHSSQDNQSKQKISSLIIEPIPLYT
modifications: Terpene Synthase Gene Amino acid sequence of the 45 identified gene products
[1]
  Monoterpenes produced with GPP: beta-myrcene and geraniol

B2: 799-4: Cannabis terpene synthase gene product, amino acid SEQ ID NO: 33 (protein)
chain: MSNIQVLASSQLSDKIIARPTTNFHPSIWGDRFLHYNISEQDLVCKEERIEELIQVVKKEILSSNHDQLKLIDNLQRLGLSHHFESEIEKLLEHLSTTHHQNHHDLHDASLCFRLLRQHGFNVSSSIFEKFKDEKGNFKGSLITDVPGLLSLYEASHLSYVGESILDEALAFTTTHLKAIVANSKDHPLSHQISIALHRPLRKTIERLHARFYISIYEKDASHNKVLLELAKLDFNLLQCFHKKELSEIMRWWKEHEFAKKFPFARDRMVEQYFWILGVYYEPKYSRARKLLTKVIALASITDDIYDAYGTIDELELLTKAMQRWDITCMDKLEPEYLKTYYKAMLDSYEEFEKELKKEELYKLEYAKEEMKRIIGAYFEEARWLSEGYFPSLDEHLKVSYVSCGYVLLIATSYVGMYDIVTHETLNWLSKDPKIVSASTLLARFMDDIGSRKFEQKRNHIPSTVDCYMKQYEVSEEEAIKELNKRVDTHWKEINEDFIRPTVVPFPILVRVLNFTKTVDLLYKEGDDQYTNVGKVLKESIAALLIDSIPL
modifications: Terpene Synthase Gene Amino acid sequence of the 45 identified gene products
[1]
  Monoterpenes produced with GPP: myrcene

B3: T-AG2575-1: Cannabis ABC-G transporter gene product, amino acid SEQ ID NO: 55 (protein)
chain: MEVGDLYKAGNSLRSSKGSSVWRGNNNNNNNKDEFFSKSRREDDIDDEEALTWAALEKLPTYDRLRKGILTTSKGKPTEVDVINLGSKERKDLLRRLVNVADEDNESFLLKLKQRIQTVGIELPTIEVRYENIKVEADVHVGSRALPSFINFCVNILEMLVSFLPILKSKKKHVTILDDVSGAIKPGRLTLLLGPPNSGKTTLLLTLAGKLASELKFSGRVTYNGHEMNEFIPQRTAAYISQHDVHIGEMTVRETLSFSARCQGVGTRYDMLAELSRREKEANITPDPDIDVFMKAASAEGQESSVITDYIIKILGLEGCADTMVGNEMLRGISGGQKKRVTTGEMLVGPAGALFMDEISTGLDSSTTFQIVNSLKQFAHIFEETIVISLLQPAPETYDLFDDIILLSDGQIVYQGPRENVLEFFELTGFKCPERKAIADFLQEVTSRKDQAQYWARSDQPYKFVTVNEFVEAFQSFHIGKKVVEHLSIPFDKTKSHPAALTTKPYGLNKMELLKACMSREFLLMKRNSFVHIFKIVQLGILGLISATIFLRTKMHHKTLQDGSIYLGALFFSTLMIMFNGLSEVPMTIVKLPVFYKQRDLQFFPAWAYALPSMIYKAPVAFIEVLVWMTITYYSIGFDPYFGRVVKLYVLFVIINQMASGLFRAIASIGRSMIIANTFGAFSLLLLFVLGGFVLSRDFIKGWWIWGYWISPLMYGQTGVVVNEFNGNKWKHVPPNSTETLGVQVLKARGFFTDSYWYWLGFAALSAYVVIFNFVYTLALTYLNPLEQRQAVSNENSESGDIQNDEEGEVIEMTQRPKNMGENQSKKKGMILPFEPHSICFDDVCYSVDMPQEMKGQGVVEDKLVLLKSVSGSFRPGVLTALMGVSGAGKTTLMDVLAGRKTGGYIEGDIRISGYPKKQETFARISGYCEQNDIHSPYVTVYESLLYSAWLRLPSEVDMDTRKMFIEEVMELVELVPLRQALVGLPGVNGLSTEQRKRLTIAVELVANPSIIFMDEPTSGLDARAAAIVMRTVRNTVDTGRTVVCTIHQPSIDIFEAFDELFLLKIGGEEIYVGPLGRHSCHLINYFEAIEGVSKIKEGYNPGTWMLEVSSSAQEMALGVDFANIYKNSDLYKRNKELIKELSTPAPGSKDLYFPTQFSRSLYTQCIACLWKQRQSYWRNPLYTAVRFMFTTFIALMFGTMFWDLGSKRSNKQDLTNALGSMYSAVLFIGVQNSSSVQPVVGVERTVFYREKAAGMFSAFPYTFGQVVVEIPYIICQAVVYCLIVYAMMGFEWTAVKFFWYLFFTFFSMLYFTFYGMMAVGITPNNHVASIISAAFYSIWNLFSGFIVPRTRIPIWWRWYYWGCPTAWTLYGLLVSQYGDVEDVMDAETGETVKQYLKSYFGYKHDFIGVVAMVNVFYGLLFGGIFALSIKVLNFQNR
modifications: ABC+PTR Transporter amino acid sequence (of the 12 identified gene products)
Yeast cells [2]
  inhibition of yeast growth in response to CBD, transporter-expressing yeast vs control yeast: reduced inhibition of growth
Yeast cells [3]
  net uptake of CBD into yeast cells compared to control (empty vector) yeast: reduced net uptake of CBD
